# System: Saccharomyces cerevisiae
# Test: transcriptional activation domain activity (GFP:mCherry ratio, weighted mean of sorted bins, harmonized to initial dataset scale) (arbitrary fluorescence ratio units); higher = stronger transcriptional activation
# Conditions: beta-estradiol 1 µM; induction time 4 h
# Experimental: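 53-aa protein tiles (fungal proteins plus yeast TF control tiles) fused C-terminally to a DBD-estrogen-binding domain-mCherry synthetic TF, integrated in S. cerevisiae (URA3 locus) with a GFP reporter. Cells were induced with 1 uM beta-estradiol for 4 h at 30 C, FACS-sorted into 8 bins by GFP:mCherry ratio and barcodes sequenced. Activity is the read-weighted mean bin fluorescence (GFP:mCherry), averaged over barcodes (median 12); tiles under 50 reads were discarded. New active-learning values were harmonized by linear fit onto the scale of the initial (Hummel et al.) dataset. The assay saturates at low and high signal.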
row,Sequence,transcriptional activation domain activity
1,MSRPSGCRSATSTGRATCSGCRRSSSPARPPCASRRARCSCGCVCASPTSTRR,12100
2,MAPCIPVMYLSVSSTSFLFLSFFILGWWILFSFTIFPATNSFLCFWAPFFFSH,46100
3,SYSLNTSLCQAFWHVTWRLTPPLAVFLPINPFLCLHLHFTCTLFFLLSLVMLQ,58400
4,KDDEKKDRHRSRRDRGDRDKEDERRRRKRRSRSRSNHRHGHERRRDRSRSREG,17100
5,MVSTRRQERDKEKKEKRKEEKEKEKGEGKTEKKKKKKSGDKKSKKGEGRTKEG,21200
6,YTTPQFAGMWSQLVEWQWLVIEKFLDILLNMLYLLHGMSYIWGNLFLPYFRLV,53600
7,FSLFLLSLLPTADAFFPLLLFVSCWLTLYTFVLCLLSYFFYSLTLTLYVCLVS,55800
8,SEGLLCPLPRYPPHPIVSQLMQTSALRSLQTIVQLQRAHFMTLLFWNILLAFY,57100
9,ELYGKPSMEAIFLLFAHYLYAGACAKGEHLIITTWDMYYEKLGFMLIFWNMAG,64300
10,NTCCCFFVCSFPSSKQKTLGALREGSWTFFFCFFLFFFLFFLVFFCFFLFCFF,24000
11,QTVNFGWSDLPHDVYTHLSSDFENPFYFDGIFPTLVDYSPLIVSPPNFLTLEP,138000
12,MLLSLYLLTPFFIDMLLALHPFTLLCVHLPTCPCILLSCFRSYPCLSLWFPFS,45900
13,VTFILALLVRLRRNLPLYSWMHWLHRHIDTLSSYDGISARPAWALFFIRLVWY,74400
14,MIISAVYITYFFSLSYLFFPLYLFIVYPFFSFLFNLLAKDTFIVDTYIIVFFA,50600
15,DLFVSLMANSLTKLGFVPGATVDMKKLTIDIVELIFRWERRRMTGSPSIKPAD,45200
16,PDYLFSRLFVCAFISLFVSLSFLQLGNGLRDLQFRVFSIFWVSILPAIIMSQI,52200
17,QAFTIVDPTPPIRFYDLHRLHLTLVHSPMRFFHVAPIIPFLLSYLIELYSLFY,43100
18,CIFFFSYYGIRILQRGVLLLFILLFYISLCDPLLFPPLFFFSSSFLGRAFFLY,89800
19,MVHIRTVVSFIFLVAGVLWTLFYLFIYFCLWDRRGHYVFLFCFCGCSRFMHFV,56500
20,LYFLRPEVLPDRYAFTIPAISFLGTNDYPVLVPDLFLLLTSSFWSPTLLWFFT,55600
21,GCLLPVTSCVFLAPFTLDFLWIPFLTHYLIILLCWYHLFSLRLLFCCSKSLPT,57200
22,KEEEQKELDRMAREEKKVWGDALRLGRTSWSESVMVWSHVMALRVFVETVLRY,62900
23,GKISKDYHHVPSLASISSLQSSQSLDQNFSIPQSPPLSSMSFNFLTGNINETN,43600
24,RCGILLGSKNDGEGVDFVRVRGERIERGSSASIEEGIGEMGRSRPVRFGGGEE,21500
25,MDKIRKGKVVVVGCGGVGSWAAVMLVRSCVQHFVVYLVCSSIYIIISGVSKIR,58900
26,DLEELRHLCHALKATFTHVLSIPVCSYFYFPQTSFAMILHSIMIICRWVKLST,35100
27,LLGLYMKMRFRTQEDFWRQIAILLRDLFVPDLQAETVVFFMRLLYNSNSMYKH,24100

row,Sequence,transcriptional activation domain activity
1,APSDTNGNGKRKQTKSRNGCTTCKAKRLKCDETKPHCKQCARRSVQCGGYRKE,39400
2,EAKAEEAAPTEAPAADAPAAEPAAEASATEEAKPAEAAKEEKKEDRPKSPSLL,8420
3,PARGNKDVFFIMFHPSEEFLFNILSLWLRACNPNCRIFHSHEAGSWKQYQKET,45000
4,RGWMVYIGFLVVFYSAAGFGLSVVNNFTLLIGVYKFVYPITTTLFQLIFTQIF,50200
5,MKLVRFLMKLNNETVTIELKNGSVIHGTITSVDPQMNTHLKSVKLSLRTAAPG,24700
6,KQYCVRPNSGRIEPGKEVEVQVILQAMKQEPPPDTKCRDKFLVQAVAIAADKE,29700
7,MADAITESTAKLQLDEETGEMVSKGELKKRLAKRAKKAAQAKAKAEAPAPLAT,36300
8,MEAKEGRPGNAFACERCRKHKVRCVPSDAPGICQRCQRARAPCIEHVARRRPA,31400
9,MVLLTTLSKKTTIVTVLCSTVINMGKFGFTRHNHRCMRTGALLCLLLFLAYHF,42800
10,SGADEFDVGASIEPTFATPRLTRTSETGTSESTSRRPSERSRSRARVLGLPVG,38500
11,NGPGTCVVLVLITYIRRMLGLRYSQVIYVESFARVKKLSLSGKLLKPFVDKFV,54600
12,VGRVTDKSSLVYDWPFDESIERNFSTTATAATGESKFDINDNCNRINSKSYSK,45900
13,HFSPSLSISSLPSLCCLFFFIIFSTSLLWSFFPLPYLTSPYLTLPYTTFFLFP,48000
14,EPRSLPASDLNKITLAPPNEESRMPKSMLELTSYSSDLPPELVDIIPKTDLTV,58300
15,NVLLLGLLGWLIRLVHNSEPTLVLKKLCSTLVTYFTRQSFRWRRCIKHLVCAF,39900
16,EEEAPEDNSGPRQGAKPAKRAHARARAPKCSGPTNAKVNGKGRARRSGRPAKK,24900
17,MDGVGLGSHRGSGSSSSSSSSAADRAPRHSTRRKRGRESRGAVVVIAATNRPN,39200
18,MVQAVIRLILDYCRYLVVSFYQFCLCCYSPLMCVPGHGIMLITSLFLKLIHVI,58200
19,KAETTAAKDAGAEPEAKPMRGGGREKKRDAEEAVKKEAVKEKPSKGSTKPASK,< 6570
20,VWVCGFLVVYLFYTWGVLSFVFFQMLINHLSFINLFFFYILSSFIGGLTLNFF,51200
21,IYTNRFVSGDDGSNSKTKNLDSNMFSNDFNFENQFDEQVSEFCSKMNQVCGTR,74400
22,MFYYYFSPHFYCFMLPLYIFLFLISLFFIYPSKFYFLLIVMGVGFFSLHLCLP,51500
23,MFYYIYLFSFFFIIVLPLPLSLCTFLHPLLLDCNFTLVAFFFCLLLFYVCHFF,28800
24,QPSAFGQTNTATNAFGQPQQQSAFGSTPTTGAFGSTNTAFGQNRPAFGSTTTP,23600
25,AEDRYIMELFVEDFICLAISGGPRLPVERAVSSWMVRILLSIQIRNYMQGNRQ,44500
26,MRLSRCCVFILLFFFDLVYYYPFLLLFNGFGGICIFLVLKRSHRETEFICFMQ,60600
27,PNRRSMGKQDPYCAARLGKEAKKTATDRRGGQTPKWDQELRFTVHDSPDYHQL,64200

row,Sequence,transcriptional activation domain activity
1,YVGKYPESIDTFSIVPRTPTSRLIRSYLKTILANPESRKIFYFLMLNLAYMLV,58300
2,ILHCFIIPLLFLVGFLSFLSLPCLLAVAFLIFMSILNLLLLGFLLLLWILLFF,41200
3,SFGDLVSVGPRQYYRPTHSLTIISICEEDNNLPASLVKRFNMLMALLVILTNT,41300
4,KMLLDHIKKFVITYTGGLVLACDISRYHEVIVQFKSVQVDEYFNVLKEICSLF,53900
5,MIKFSLLIFLIVFILDYLIFFCFFFFFLFFYFFIQFTLFMVCGGDLIYGFING,43200
6,ALYGLQAVVFVVIPLLQIIQIALILCQFFVANYFTIFSFVNVLFIIVAVFAFL,41400
7,QNESERLGPPKKKRRRQALSCTECKRRKIKCDRTHPCGPCARRSEPEKCQWHV,27600
8,VYTVMILSTIFGICYVPFGVFICDSLKAYPGEVTNCSHQMQNLATIFFILFSV,57000
9,ASSSAPAAEPEAAAEEAPKKEEAAPAKEEPAAATTATAAAAGESSEAPKEAAP,33900
10,IDGIDLEEAGNFREIETYYRDYLSPIDRLSIISVQENNVIFQDKGNVSRENIE,73100
11,IVQLHLKIHGAWLGRIRCDHCPKFHIEKFCWAACGGPQGLRRIIEHYLKVLNW,39000
12,MGFKTSMGWICLSQVSFFDCNLLYCVVFFIFSSKSLATSPFLSLVLLFSLYPL,29200
13,SAFGGGGGASAFGSGTSAFGSGANTGSAFGGTASTPSTASAFGGGSAFGGAGS,32700
14,HTKSTESLVQLDDADGSRLDKVSGSLIQSLLASLGAQHKLVADAALTFLTAGR,43900
15,LQRKNPEEQIAVNKVISLLYSNRESSYLEDTCPTENDYSDLLKGYINEIEKTL,33800
16,IGWWMVKSGLKDDLFAPGSHPRVSQYRLTAHLSTAFFCYSWMLLAGLSVLRTR,69800
17,VHEVRAKAVKLVTASDSDDESGAGAGKAKKSEWKTQGVGPLRLLKNKSTGAVR,32400
18,EDTVHSVRVKAHRMKKSESGETGWAELGVGVLRLKTHKETASRRMLLRNSGNG,58000
19,NLNFMPINNNYNNSGSNINNNDNVKLPSNFKNYYDPPMSSLDISMDVPDIFGS,94300
20,MFPFVFLSSFLSCFRLYSFNTCYIFSLILLCWYTFLLSYNGSLFCYPMIVYFL,70400
21,MFQIHFLLFFFFFFSFFLLLLCFDVSILEVYFYKLLLFSFFFMMIVDLFFLFL,60300
22,VHLTLNLGTYLRVISIGKPFPMWLDYWYNYGYILYCAILQLYELWQIVILIWL,60100
23,LNWYWLATTMYFLYGESVIYYFKHIVLVDKVLLPLATHHRFISFILYVFGFVF,71900
24,SCMVYSIHNTTILILSFSPSPLNFFFFSSWLLFIFFFFLFLFLFLFLFLFLFL,39900
25,MFTFNASSTINITLSILCYFIFLISVLLIRLYLNNSFMLFSLFFFFYFIYVIL,61200

# Source: the supplement of paper PMC12636428
